Laboratory results taken from IntAct's records for PubMed 20861839.

B1: Symplekin (Homo sapiens), Q92797 (parent)
chain: MASGSGDSVTRRSVASQFFTQEEGPGIDGMTTSERVVDLLNQAALITNDSKITVLKQVQELIINKDPTLLDNFLDEIIAFQADKSIEVRKFVIGFIEEACKRDIELLLKLIANLNMLLRDENVNVVKKAILTMTQLYKVALQWMVKSRVISELQEACWDMVSAMAGDIILLLDSDNDGIRTHAIKFVEGLIVTLSPRMADSEIPRRQEHDISLDRIPRDHPYIQYNVLWEEGKAALEQLLKFMVHPAISSINLTTALGSLANIARQRPMFMSEVIQAYETLHANLPPTLAKSQVSSVRKNLKLHLLSVLKHPASLEFQAQITTLLVDLGTPQAEIARNMPSSKDTRKRPRDDSDSTLKKMKLEPNLGEDDEDKDLEPGPSGTSKASAQISGQSDTDITAEFLQPLLTPDNVANLVLISMVYLPEAMPASFQAIYTPVESAGTEAQIKHLARLMATQMTAAGLGPGVEQTKQCKEEPKEEKVVKTESVLIKRRLSAQGQAISVVGSLSSMSPLEEEAPQAKRRPEPIIPVTQPRLAGAGGRKKIFRLSDVLKPLTDAQVEAMKLGAVKRILRAEKAVACSGAAQVRIKILASLVTQFNSGLKAEVLSFILEDVRARLDLAFAWLYQEYNAYLAAGASGSLDKYEDCLIRLLSGLQEKPDQKDGIFTKVVLEAPLITESALEVVRKYCEDESRTYLGMSTLRDLIFKRPSRQFQYLHVLLDLSSHEKDKVRSQALLFIKRMYEKEQLREYVEKFALNYLQLLVHPNPPSVLFGADKDTEVAAPWTEETVKQCLYLYLALLPQNHKLIHELAAVYTEAIADIKRTVLRVIEQPIRGMGMNSPELLLLVENCPKGAETLVTRCLHSLTDKVPPSPELVKRVRDLYHKRLPDVRFLIPVLNGLEKKEVIQALPKLIKLNPIVVKEVFNRLLGTQHGEGNSALSPLNPGELLIALHNIDSVKCDMKSIIKATNLCFAERNVYTSEVLAVVMQQLMEQSPLPMLLMRTVIQSLTMYPRLGGFVMNILSRLIMKQVWKYPKVWEGFIKCCQRTKPQSFQVILQLPPQQLGAVFDKCPELREPLLAHVRSFTPHQQAHIPNSIMTILEASGKQEPEAKEAPAGPLEEDDLEPLTLAPAPAPRPPQDLIGLRLAQEKALKRQLEEEQKLKPGGVGAPSSSSPSPSPSARPGPPPSEEAMDFREEGPECETPGIFISMDDDSGLTEAALLDSSLEGPLPKETAAGGLTLKEERSPQTLAPVGEDAMKTPSPAAEDAREPEAKGNS
B2: RNA polymerase II subunit A C-terminal domain phosphatase SSU72 (Homo sapiens), Q9NP77-1 (parent)
chain: MPSSPLRVAVVCSSNQNRSMEAHNILSKRGFSVRSFGTGTHVKLPGPAPDKPNVYDFKTTYDQMYNDLLRKDKELYTQNGILHMLDRNKRIKPRPERFQNCKDLFDLILTCEERVYDQVVEDLNSREQETCQPVHVVNVDIQDNHEEATLGAFLICELCQCIQHTEDMENEIDELLQEFEEKSGRTFLHTVCFY
partner: B1 chain

Variants of: B1
Conditions: with SSU72, Q9NP77-1

Row | effect of a mutation on the interaction | Variant
1 | disrupting interaction | K185A

Variants of: B2
Conditions: with sympk_human SYMPK

Row | effect of a mutation on the interaction | Variant
2 | disrupting interaction | T190A;V191A;F193A
